Reference: patent US9587033

B1: full length Tnk1 (72 kDa) (protein)
chain: MLPEAGSLWLLKLLRDIQLAQFYWPILEELNVTRPEHFDFVKPEDLDGIGMGRPAQRRLSEALKRLRSGPKSKNWVYKILGGFAPEHKEPTLPSDSPRHLPEPEGGLKCLIPEGAVCRGELLGSGCFGVVHRGLWTLPSGKSVPVAVKSLRVGPEGPMGTELGDFLREVSVMMNLEHPHVLRLHGLVLGQPLQMVMELAPLGSLHARLTAPAPTPPLLVALLCLFLRQLAGAMAYLGARGLVHRDLATRNLLLASPRTIKVADFGLVRPLGGARGRYVMGGPRPIPYAWCAPESLRHGAFSSASDVWMFGVTLWEMFSGGEEPWAGVPPYLILQRLEDRARLPRPPLCSRALYSLALRCWAPHPADRPSFSHLEGLLQEAGPSEACCVRDVTEPGALRMETGDPITVIEGSSSFHSPDSTIWKGQNGRTFKVGSFPASAVTLADAGGLPATRPVHRGTPARGDQHPGSIDGDRKKANLWDAPPARGQRRNMPLERMKGISRSLESVLSLGPRPTGGGSSPPEIRQARAVPQGPPGLPPRPPLSSSSPQPSQPSRERLPWPKRKPPHNHPMGMPGARKAAALSGGLLSDPELQRKIMEVELSVHGVTHQECQTALGATGGDVVSAIRNLKVDQLFHLSSRSRADCWRILEHYQWDLSAASRYVLARP

How the values were obtained:
Grb2 = Grb2 (UniProt P62993)

Chain of Grb2, P62993 (P62993 whole entry, looked up, the tested form may be a part): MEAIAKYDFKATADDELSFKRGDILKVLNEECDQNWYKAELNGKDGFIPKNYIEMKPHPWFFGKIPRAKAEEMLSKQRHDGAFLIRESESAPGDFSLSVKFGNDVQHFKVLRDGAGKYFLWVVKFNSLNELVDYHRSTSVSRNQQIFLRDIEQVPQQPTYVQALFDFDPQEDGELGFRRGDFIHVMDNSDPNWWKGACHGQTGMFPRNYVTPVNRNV

Molecule	in vitro PTK activity assay (Y-phosphorylation of Grb2) (Grb2)	in vitro PTK activity assay (Y-phosphorylation of Grb2) (Grb2, P62993)
60 kDa truncated Tnk1-C17ORF61 fusion protein (tTnk1)	The t-Tnk1 showed none or weak Y-phosphorylation of Grb2	
B1		Tnk1 from T47D or K562 Y-phosphorylated Grb2
